Biological target: Prebiotinylated FcγRI (Biotinylated Human CD64 Protein, His, Avitag) (human) (UniProt P12314)
Experiment: SPR; Biacore T200; biotinylated FcγRI immobilised on a streptavidin SA chip (F-chip); single-cycle kinetics, OPD injected at 90, 30, 10 nM, 120 s contact, 900 s dissociation; running buffer HBS-EP 1x pH 7.4; double-referenced; 1:1 Langmuir fit; mean ± SD, n = 3

Chain of UniProt P12314 (P12314 16-292): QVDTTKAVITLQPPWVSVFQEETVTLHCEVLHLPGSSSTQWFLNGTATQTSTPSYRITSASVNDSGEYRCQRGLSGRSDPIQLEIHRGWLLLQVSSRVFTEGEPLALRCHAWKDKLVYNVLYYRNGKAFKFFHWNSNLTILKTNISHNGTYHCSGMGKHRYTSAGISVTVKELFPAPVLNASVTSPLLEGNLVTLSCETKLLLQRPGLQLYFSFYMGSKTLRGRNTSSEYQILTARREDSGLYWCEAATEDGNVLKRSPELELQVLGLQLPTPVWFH

What does the source list for nivolumab (antibody)?
Kd: 7.33 nM; koff: 0.00093 s⁻¹; kon: 127000 M⁻¹ s⁻¹

Source: paper PMC12809509
